In assay [1] the target is aIgE-Fab (Fab fragment of Omalizumab, Xolair). Nature of the assay: SPR Biacore 3000, Fab on CM5 chip, peptide analyte, 1:1 fit.
The target of assay [2] is aRSV-Fab (Fab fragment of Palivizumab, Synagis). Described as above.
Assay [3] concerns the target aTNFa-Fab (Fab fragment of Infliximab, Remicade). The description is as above.
Assay [4] shares this target. Nature of the assay: dynamic binding capacity on a 1 mL-gel column, 1 mg/mL aTNFa-Fab at […], 55% breakthrough.

Regarding “LB1t-Wild.1d (B1 domain of PpL312 with deletion of the N-terminal region)”, the figures for the Ka in assay [1], in assay [2] and in assay [3] were 1.12e+09 M⁻¹, 4.4e+06 M⁻¹ and 30000 M⁻¹, respectively.

On to “LB2t-Wild.1d (B2 domain of PpL312 with deletion of the N-terminal region)”, for which, in assay [2], the Ka came to 1e+06 M⁻¹.

With “LB3t-Wild.1d (B3 domain of PpL312 with deletion of the N-terminal region)”, in assay [1], the Ka amounted to 3.77e+08 M⁻¹.

Take “LB4t-Wild.1d (B4 domain of PpL312 with deletion of the N-terminal region)”: the Ka in assay [1] was 1.08e+09 M⁻¹; in assay [2], 1.38e+07 M⁻¹; in assay [3], 300000 M⁻¹.

With “LB5t-Wild.1d (B5 domain of Protein L of Peptostreptococcus magnus 312 strain with deletion of the N-terminal region, single domain)”, the Ka was determined as 4.43e+08 M⁻¹ in assay [1] and 700000 M⁻¹ in assay [3].

Consider “LC1t-Wild.1d (C1 domain of PpL3316 with deletion of the N-terminal region)”, for which the values for the Ka in assay [1] and in assay [2] were 2.71e+07 M⁻¹ and 2.3e+06 M⁻¹, respectively.

For the substance “LC2t-Wild.1d (C2 domain of PpL3316 with deletion of the N-terminal region)”, the Ka in assay [2] was 9.2e+06 M⁻¹.

Take “LC3t-Wild.1d (C3 domain of PpL3316 with deletion of the N-terminal region)”: the Ka in assay [2] stood at 8.7e+06 M⁻¹.

As to “LC4t-Wild.1d (C4 domain of PpL3316 with deletion of the N-terminal region)”, the Ka in assay [1] was found to be 4.18e+09 M⁻¹; in assay [2], 1.93e+07 M⁻¹.

For “commercially available Protein L carrier (HiTrap Protein L, GE Healthcare Bioscience)”, the 55% DBC in assay [4] came out at 4.8 mg/mL/gel.

Values taken from US20170327535A1.
